Source: patent publication US20240209076A1 (KODIAK SCIENCES, published 2024)

B1: anti-IL-6 antibody, heavy chain S35Q, G66D / light chain M32L, M50D, N52S, M88Q (antibody, IgG1, V domains shown)
VH: EVQLVESGGGLVQPGGSLRLSCAASGFTFSPFAMQWVRQAPGKGLEWVAKISPGGSWTYYSDTVTDRFTFSLDTSKSTAYLQMNSLRAEDTAVYYCARQLWGYYALDIWGQGTLVTVSS
VL: DIQLTQSPSSLSASVGDRVTITCSASISVSYLYWYQQKPGKAPKLLIYDDSSLASGVPSRFSGSGSGTDFTLTISSLQPEDFATYYCQQWSGYPYTFGQGTKVEIK
notes: Full IgG1 (Expi293); VL = variant III
B2: anti-IL-6 antibody, heavy chain T63H, G66D / light chain M32L, M50D, N52S, M88Q (antibody, IgG1, V domains shown)
VH: EVQLVESGGGLVQPGGSLRLSCAASGFTFSPFAMSWVRQAPGKGLEWVAKISPGGSWTYYSDHVTDRFTFSLDTSKSTAYLQMNSLRAEDTAVYYCARQLWGYYALDIWGQGTLVTVSS
VL: DIQLTQSPSSLSASVGDRVTITCSASISVSYLYWYQQKPGKAPKLLIYDDSSLASGVPSRFSGSGSGTDFTLTISSLQPEDFATYYCQQWSGYPYTFGQGTKVEIK
notes: as for B1
B3: anti-IL-6 antibody, heavy chain S35Y, G66D / light chain M32L, M50D, N52S, M88Q (antibody, IgG1, V domains shown)
VH: EVQLVESGGGLVQPGGSLRLSCAASGFTFSPFAMYWVRQAPGKGLEWVAKISPGGSWTYYSDTVTDRFTFSLDTSKSTAYLQMNSLRAEDTAVYYCARQLWGYYALDIWGQGTLVTVSS
VL: DIQLTQSPSSLSASVGDRVTITCSASISVSYLYWYQQKPGKAPKLLIYDDSSLASGVPSRFSGSGSGTDFTLTISSLQPEDFATYYCQQWSGYPYTFGQGTKVEIK
notes: as for B1
B4: anti-IL-6 antibody, heavy chain T63V, G66D / light chain M32L, M50D, N52S, M88Q (antibody, IgG1, V domains shown)
VH: EVQLVESGGGLVQPGGSLRLSCAASGFTFSPFAMSWVRQAPGKGLEWVAKISPGGSWTYYSDVVTDRFTFSLDTSKSTAYLQMNSLRAEDTAVYYCARQLWGYYALDIWGQGTLVTVSS
VL: DIQLTQSPSSLSASVGDRVTITCSASISVSYLYWYQQKPGKAPKLLIYDDSSLASGVPSRFSGSGSGTDFTLTISSLQPEDFATYYCQQWSGYPYTFGQGTKVEIK
notes: as for B1
B5: anti-IL-6 antibody, heavy chain S35T, G66D / light chain M32L, M50D, N52S, M88Q (antibody, IgG1, V domains shown)
VH: EVQLVESGGGLVQPGGSLRLSCAASGFTFSPFAMTWVRQAPGKGLEWVAKISPGGSWTYYSDTVTDRFTFSLDTSKSTAYLQMNSLRAEDTAVYYCARQLWGYYALDIWGQGTLVTVSS
VL: DIQLTQSPSSLSASVGDRVTITCSASISVSYLYWYQQKPGKAPKLLIYDDSSLASGVPSRFSGSGSGTDFTLTISSLQPEDFATYYCQQWSGYPYTFGQGTKVEIK
notes: as for B1
B6: anti-IL-6 antibody, heavy chain T63L, G66D / light chain M32L, M50D, N52S, M88Q (antibody, IgG1, V domains shown)
VH: EVQLVESGGGLVQPGGSLRLSCAASGFTFSPFAMSWVRQAPGKGLEWVAKISPGGSWTYYSDLVTDRFTFSLDTSKSTAYLQMNSLRAEDTAVYYCARQLWGYYALDIWGQGTLVTVSS
VL: DIQLTQSPSSLSASVGDRVTITCSASISVSYLYWYQQKPGKAPKLLIYDDSSLASGVPSRFSGSGSGTDFTLTISSLQPEDFATYYCQQWSGYPYTFGQGTKVEIK
notes: as for B1
B7: anti-IL-6 antibody, heavy chain T63G, G66D / light chain M32L, M50D, N52S, M88Q (antibody, IgG1, V domains shown)
VH: EVQLVESGGGLVQPGGSLRLSCAASGFTFSPFAMSWVRQAPGKGLEWVAKISPGGSWTYYSDGVTDRFTFSLDTSKSTAYLQMNSLRAEDTAVYYCARQLWGYYALDIWGQGTLVTVSS
VL: DIQLTQSPSSLSASVGDRVTITCSASISVSYLYWYQQKPGKAPKLLIYDDSSLASGVPSRFSGSGSGTDFTLTISSLQPEDFATYYCQQWSGYPYTFGQGTKVEIK
notes: as for B1
B8: anti-IL-6 antibody, heavy chain T63A, G66D / light chain M32L, M50D, N52S, M88Q (antibody, IgG1, V domains shown)
VH: EVQLVESGGGLVQPGGSLRLSCAASGFTFSPFAMSWVRQAPGKGLEWVAKISPGGSWTYYSDAVTDRFTFSLDTSKSTAYLQMNSLRAEDTAVYYCARQLWGYYALDIWGQGTLVTVSS
VL: DIQLTQSPSSLSASVGDRVTITCSASISVSYLYWYQQKPGKAPKLLIYDDSSLASGVPSRFSGSGSGTDFTLTISSLQPEDFATYYCQQWSGYPYTFGQGTKVEIK
notes: as for B1
B9: anti-IL-6 antibody, heavy chain T63F, G66D / light chain M32L, M50D, N52S, M88Q (antibody, IgG1, V domains shown)
VH: EVQLVESGGGLVQPGGSLRLSCAASGFTFSPFAMSWVRQAPGKGLEWVAKISPGGSWTYYSDFVTDRFTFSLDTSKSTAYLQMNSLRAEDTAVYYCARQLWGYYALDIWGQGTLVTVSS
VL: DIQLTQSPSSLSASVGDRVTITCSASISVSYLYWYQQKPGKAPKLLIYDDSSLASGVPSRFSGSGSGTDFTLTISSLQPEDFATYYCQQWSGYPYTFGQGTKVEIK
notes: as for B1
B10: anti-IL-6 antibody, heavy chain T63W, G66D / light chain M32L, M50D, N52S, M88Q (antibody, IgG1, V domains shown)
VH: EVQLVESGGGLVQPGGSLRLSCAASGFTFSPFAMSWVRQAPGKGLEWVAKISPGGSWTYYSDWVTDRFTFSLDTSKSTAYLQMNSLRAEDTAVYYCARQLWGYYALDIWGQGTLVTVSS
VL: DIQLTQSPSSLSASVGDRVTITCSASISVSYLYWYQQKPGKAPKLLIYDDSSLASGVPSRFSGSGSGTDFTLTISSLQPEDFATYYCQQWSGYPYTFGQGTKVEIK
notes: as for B1
B11: anti-IL-6 antibody, heavy chain T63I, G66D / light chain M32L, M50D, N52S, M88Q (antibody, IgG1, V domains shown)
VH: EVQLVESGGGLVQPGGSLRLSCAASGFTFSPFAMSWVRQAPGKGLEWVAKISPGGSWTYYSDIVTDRFTFSLDTSKSTAYLQMNSLRAEDTAVYYCARQLWGYYALDIWGQGTLVTVSS
VL: DIQLTQSPSSLSASVGDRVTITCSASISVSYLYWYQQKPGKAPKLLIYDDSSLASGVPSRFSGSGSGTDFTLTISSLQPEDFATYYCQQWSGYPYTFGQGTKVEIK
notes: as for B1
B12: anti-IL-6 antibody, heavy chain T63S, G66D / light chain M32L, M50D, N52S, M88Q (antibody, IgG1, V domains shown)
VH: EVQLVESGGGLVQPGGSLRLSCAASGFTFSPFAMSWVRQAPGKGLEWVAKISPGGSWTYYSDSVTDRFTFSLDTSKSTAYLQMNSLRAEDTAVYYCARQLWGYYALDIWGQGTLVTVSS
VL: DIQLTQSPSSLSASVGDRVTITCSASISVSYLYWYQQKPGKAPKLLIYDDSSLASGVPSRFSGSGSGTDFTLTISSLQPEDFATYYCQQWSGYPYTFGQGTKVEIK
notes: as for B1
B13: anti-IL-6 antibody, heavy chain S35W, G66D / light chain M32L, M50D, N52S, M88Q (antibody, IgG1, V domains shown)
VH: EVQLVESGGGLVQPGGSLRLSCAASGFTFSPFAMWWVRQAPGKGLEWVAKISPGGSWTYYSDTVTDRFTFSLDTSKSTAYLQMNSLRAEDTAVYYCARQLWGYYALDIWGQGTLVTVSS
VL: DIQLTQSPSSLSASVGDRVTITCSASISVSYLYWYQQKPGKAPKLLIYDDSSLASGVPSRFSGSGSGTDFTLTISSLQPEDFATYYCQQWSGYPYTFGQGTKVEIK
notes: as for B1
B14: anti-IL-6 antibody, heavy chain T63Y, G66D / light chain M32L, M50D, N52S, M88Q (antibody, IgG1, V domains shown)
VH: EVQLVESGGGLVQPGGSLRLSCAASGFTFSPFAMSWVRQAPGKGLEWVAKISPGGSWTYYSDYVTDRFTFSLDTSKSTAYLQMNSLRAEDTAVYYCARQLWGYYALDIWGQGTLVTVSS
VL: DIQLTQSPSSLSASVGDRVTITCSASISVSYLYWYQQKPGKAPKLLIYDDSSLASGVPSRFSGSGSGTDFTLTISSLQPEDFATYYCQQWSGYPYTFGQGTKVEIK
notes: as for B1
B15: anti-IL-6 antibody, heavy chain S35V, G66D / light chain M32L, M50D, N52S, M88Q (antibody, IgG1, V domains shown)
VH: EVQLVESGGGLVQPGGSLRLSCAASGFTFSPFAMVWVRQAPGKGLEWVAKISPGGSWTYYSDTVTDRFTFSLDTSKSTAYLQMNSLRAEDTAVYYCARQLWGYYALDIWGQGTLVTVSS
VL: DIQLTQSPSSLSASVGDRVTITCSASISVSYLYWYQQKPGKAPKLLIYDDSSLASGVPSRFSGSGSGTDFTLTISSLQPEDFATYYCQQWSGYPYTFGQGTKVEIK
notes: as for B1
B16: anti-IL-6 antibody, heavy chain T63D, G66D / light chain M32L, M50D, N52S, M88Q (antibody, IgG1, V domains shown)
VH: EVQLVESGGGLVQPGGSLRLSCAASGFTFSPFAMSWVRQAPGKGLEWVAKISPGGSWTYYSDDVTDRFTFSLDTSKSTAYLQMNSLRAEDTAVYYCARQLWGYYALDIWGQGTLVTVSS
VL: DIQLTQSPSSLSASVGDRVTITCSASISVSYLYWYQQKPGKAPKLLIYDDSSLASGVPSRFSGSGSGTDFTLTISSLQPEDFATYYCQQWSGYPYTFGQGTKVEIK
notes: as for B1
B17: anti-IL-6 antibody, heavy chain T63P, G66D / light chain M32L, M50D, N52S, M88Q (antibody, IgG1, V domains shown)
VH: EVQLVESGGGLVQPGGSLRLSCAASGFTFSPFAMSWVRQAPGKGLEWVAKISPGGSWTYYSDPVTDRFTFSLDTSKSTAYLQMNSLRAEDTAVYYCARQLWGYYALDIWGQGTLVTVSS
VL: DIQLTQSPSSLSASVGDRVTITCSASISVSYLYWYQQKPGKAPKLLIYDDSSLASGVPSRFSGSGSGTDFTLTISSLQPEDFATYYCQQWSGYPYTFGQGTKVEIK
notes: as for B1
B18: anti-IL-6 antibody, heavy chain T63R, G66D / light chain M32L, M50D, N52S, M88Q (antibody, IgG1, V domains shown)
VH: EVQLVESGGGLVQPGGSLRLSCAASGFTFSPFAMSWVRQAPGKGLEWVAKISPGGSWTYYSDRVTDRFTFSLDTSKSTAYLQMNSLRAEDTAVYYCARQLWGYYALDIWGQGTLVTVSS
VL: DIQLTQSPSSLSASVGDRVTITCSASISVSYLYWYQQKPGKAPKLLIYDDSSLASGVPSRFSGSGSGTDFTLTISSLQPEDFATYYCQQWSGYPYTFGQGTKVEIK
notes: as for B1

target: T1, human IL-6 (human, UniProt P05231 30-212); assay: SPR Biacore, supernatant Ab on Protein A chip, 37 C
T1 construct: IL-6 flowed over captured antibodies
Experimental: Antibodies were captured on a Protein A chip (GE) by injecting 1:20 cell supernatant dilutions at 10 μL/min for 60 seconds. […] The sensor chip was regenerated by a 60 seconds injection of 10 mM Glycine pH 1.7 at the flow rate of 50 μL/min. […] For this setup, 1 μg/mL of purified antibody was injected over a Protein A chip at 10 μL/min for 25 seconds. […] The sensor chip was regenerated by a 60 seconds injection of 10 mM Glycine pH 1.7 at flow rate of 50 μL/min. Data analysis for supernatant and purified samples were performed using BIAevaluation software (GE). All sensorgrams were double reference subtracted and fit using a 1:1 Langmuir binding model.

T1 sequence (P05231 30-212 limits assumed): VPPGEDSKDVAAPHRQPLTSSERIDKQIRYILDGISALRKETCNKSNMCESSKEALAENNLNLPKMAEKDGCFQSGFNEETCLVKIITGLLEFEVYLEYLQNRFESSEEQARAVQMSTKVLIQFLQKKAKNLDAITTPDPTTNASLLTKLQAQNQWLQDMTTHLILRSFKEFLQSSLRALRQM

| Binder | Kd [nM] | koff [s⁻¹] | kon [M⁻¹ s⁻¹] |
| --- | --- | --- | --- |
| B1 | 0.3 | 0.000626 | 2.09e+06 |
| B2 | 0.28 | 0.000481 | 1.72e+06 |
| B3 | 3.43 | 0.00404 | 1.18e+06 |
| B4 | 0.274 | 0.00043 | 1.57e+06 |
| B5 | 0.498 | 0.000711 | 1.43e+06 |
| B6 | 0.283 | 0.000454 | 1.6e+06 |
| B7 | 0.261 | 0.00045 | 1.73e+06 |
| B8 | 0.268 | 0.000458 | 1.7e+06 |
| B9 | 0.274 | 0.000459 | 1.67e+06 |
| B10 | 0.286 | 0.000449 | 1.57e+06 |
| B11 | 0.288 | 0.000446 | 1.55e+06 |
| B12 | 0.278 | 0.000499 | 1.8e+06 |
| B13 | 34.6 | 0.00591 | 171000 |
| B14 | 0.241 | 0.000459 | 1.91e+06 |
| B15 | 1.33 | 0.00137 | 1.03e+06 |
| B16 | 0.249 | 0.000413 | 1.66e+06 |
| B17 | 0.246 | 0.000419 | 1.7e+06 |
| B18 | 0.273 | 0.000526 | 1.92e+06 |
